Results taken from article PMC11846418 (Cancer Cell International, 2025).

Target: HA-CDK1 (UniProt P06493 1-297)
Assay: pull-down

Chain of HA-CDK1 (P06493 whole entry): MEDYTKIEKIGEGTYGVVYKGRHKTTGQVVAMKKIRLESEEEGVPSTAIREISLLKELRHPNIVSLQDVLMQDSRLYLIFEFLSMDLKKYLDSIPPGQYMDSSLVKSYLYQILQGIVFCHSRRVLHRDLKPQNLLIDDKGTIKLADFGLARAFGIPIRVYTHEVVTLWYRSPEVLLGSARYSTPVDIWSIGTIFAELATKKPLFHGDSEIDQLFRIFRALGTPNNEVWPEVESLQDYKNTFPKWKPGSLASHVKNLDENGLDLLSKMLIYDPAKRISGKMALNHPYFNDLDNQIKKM

B1: GST-USP7 210-500 (domain or fragment, UniProt Q93009 210-500, looked up)
chain: HTGYVGLKNQGATCYMNSLLQTLFFTNQLRKAVYMMPTEGDDSSKSVPLALQRVFYELQHSDKPVGTKKLTKSFGWETLDSFMQHDVQELCRVLLDNVENKMKGTCVEGTIPKLFRGKMVSYIQCKEVDYRSDRREDYYDIQLSIKGKKNIFESFVDYVAVEQLDGDNKYDAGEHGLQEAEKGVKFLTLPPVLHLQLMRFMYDPQTDQNIKINDRFEFPEQLPLDEFLQKTDPKDPANYILHAVLVHSGDNHGGHYVVYLNPKGDGKWCKFDDDVVSRCTKEEAIEHNYGG
- binding result: binds
